Experiments:
Assay in all cases: phage ELISA
DGI-2 polypeptide = target: T1, DGI-2 polypeptide (UniProt Q15004 1-111, limits assumed)
T1 construct: Soluble recombinant protein coated at 500 ng/well; vector tag of pIVEX2.3-MCS not described for this construct; also called KIAA0101
T1 sequence (looked up): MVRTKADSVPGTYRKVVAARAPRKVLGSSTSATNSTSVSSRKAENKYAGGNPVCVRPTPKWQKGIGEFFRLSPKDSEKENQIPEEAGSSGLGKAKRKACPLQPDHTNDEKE
Summary of the method: (§1)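 Phage from individual clones were bound for 2 h at RT to wells coated with 500 ng DGI-2, LDH (non-specific), anti-E-tag antibody (positive control) or milk (negative control). Bound phage were detected with HRP-anti-M13 and ABTS at A405; positive clones gave ≥2-fold signal over background.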

[1] = target: T2, antibody raised against ETAG
T2 construct: Coated at 500 ng/well; also called E-tag antibody
Summary of the method: as §1

[2] = target: T3, lactate dehydrogenase (LDH)
T3 construct: Coated at 500 ng/well as non-specific target; also called LDH polypeptide
Summary of the method: as §1

Binder: DGKHLTKWSGRGWWSAWVGGAAAGAPVPYPDPLEPRP [DGI-2-20R-3-B12]
- DGI-2 (OD) (DGI-2 polypeptide): 5.7 OD
- DGI-2/LDH (DGI-2 polypeptide): 5.5 ratio
- ETAG (OD) [1]: 15.5 OD
- LDH (OD) [2]: 1 OD

B1: DGI-2-40F-4-F122 (peptide)
peptide: RSQVRVVSRERSTPVLHRIECLLFSGWCVTSGSDEGVVWGAAAGAPVPYPDPLEPRP
- DGI-2 (OD) (DGI-2 polypeptide): 4.7 OD
- DGI-2/LDH (DGI-2 polypeptide): 5.7 ratio
- ETAG (OD) [1]: 8.1 OD
- LDH (OD) [2]: 0.8 OD

Binder: SWACGLLWPGECGSQVARRGAAAGAPVPYPDPLEPRP [DGI-2-20R-3-D127]
- DGI-2 (OD) (DGI-2 polypeptide): 6.7 OD
- DGI-2/LDH (DGI-2 polypeptide): 6.4 ratio
- ETAG (OD) [1]: 15.4 OD
- LDH (OD) [2]: 1 OD

Binder: VLQRSLWKDWVDGVMHGGGSRGVAAAGAPVPYPDPLEPRP [DGI-2-20R-3-A7]
- DGI-2 (OD) (DGI-2 polypeptide): 4.8 OD
- DGI-2/LDH (DGI-2 polypeptide): 5.1 ratio
- ETAG (OD) [1]: 13.9 OD
- LDH (OD) [2]: 0.9 OD

B2: DGI-2-40F-4-F97 (peptide)
peptide: QVGGMTQVGATVLSVVTGRGSCDGEDAWYPPGVTVGLGLCAAAGAPVPYPDPLEPRP
- DGI-2 (OD) (DGI-2 polypeptide): 6.7 OD
- DGI-2/LDH (DGI-2 polypeptide): 6.4 ratio
- ETAG (OD) [1]: 14 OD
- LDH (OD) [2]: 1 OD

Binder: RPVVCLAGLTLAQFGWVFPGWRGWSAAAGAPVPYPDPLEPRP [DGI-2-20C-3-C1039]
- DGI-2 (OD) (DGI-2 polypeptide): 4.7 OD
- DGI-2/LDH (DGI-2 polypeptide): 4.7 ratio
- ETAG (OD) [1]: 11.8 OD
- LDH (OD) [2]: 1 OD

Binder: SLECWAMPGMVVRLVGCDGPAAAGAPVPYPDPLEPRP [DGI-2-20R-4-H112]
- DGI-2 (OD) (DGI-2 polypeptide): 6.6 OD
- DGI-2/LDH (DGI-2 polypeptide): 6 ratio
- ETAG (OD) [1]: 12.3 OD
- LDH (OD) [2]: 1.1 OD

Binder: LPQSRWLSEAWASWVDGVVDAAAGAPVPYPDPLEPRP [DGI-2-20F-4-F9]
- DGI-2 (OD) (DGI-2 polypeptide): 5.6 OD
- DGI-2/LDH (DGI-2 polypeptide): 5.9 ratio
- ETAG (OD) [1]: 19.6 OD
- LDH (OD) [2]: 1 OD

B3: DGI-2-40F-3-C424 (peptide)
peptide: TVKFQGVVQERSRIAGFRYCGDHAVSWGLAGCPALRDKLQAAAGAPVPYPDPLEPRP
- DGI-2 (OD) (DGI-2 polypeptide): 5.5 OD
- DGI-2/LDH (DGI-2 polypeptide): 5.2 ratio
- ETAG (OD) [1]: 14.8 OD
- LDH (OD) [2]: 1.1 OD

Binder: YTPASILTGFQRGYEGAGNGAAAGAPVPYPDPLEPRP [DGI-2-20R-4-G7]
- DGI-2 (OD) (DGI-2 polypeptide): 4.7 OD
- DGI-2/LDH (DGI-2 polypeptide): 3.9 ratio
- ETAG (OD) [1]: 11.6 OD
- LDH (OD) [2]: 1.2 OD

Binder: VLGADAGMIWFMDGCGIRCRAAAGAPVPYPDPLEPRP [DGI-2-20R-4-E6]
- DGI-2 (OD) (DGI-2 polypeptide): 7 OD
- DGI-2/LDH (DGI-2 polypeptide): 7 ratio
- ETAG (OD) [1]: 19.1 OD
- LDH (OD) [2]: 1 OD

Binder: WAASCFWGHVALGCGRNGQGAAAGAPVPYPDPLEPRP [DGI-2-20R-3-A11]
- DGI-2 (OD) (DGI-2 polypeptide): 6.2 OD
- DGI-2/LDH (DGI-2 polypeptide): 5.7 ratio
- ETAG (OD) [1]: 14.7 OD
- LDH (OD) [2]: 1.1 OD

Binder: VVRQGCMAFSGLCSGVTESEAAAGAPVPYPDPLEPRP [DGI-2-20R-3-C8]
- DGI-2 (OD) (DGI-2 polypeptide): 5.6 OD
- DGI-2/LDH (DGI-2 polypeptide): 5.3 ratio
- ETAG (OD) [1]: 21.1 OD
- LDH (OD) [2]: 1.1 OD

Binder: MGVVLECEGGWSIPGQTCYFAAAGAPVPYPDPLEPRP [DGI-2-20R-3-C7]
- DGI-2 (OD) (DGI-2 polypeptide): 5.1 OD
- DGI-2/LDH (DGI-2 polypeptide): 5.1 ratio
- ETAG (OD) [1]: 18 OD
- LDH (OD) [2]: 1 OD

B4: DGI-2-40F-3-C8 (peptide)
peptide: YGTAGLFLRRACTMSDPGDPLGRRGYTGWGVLWDEWVTGSAAAGAPVPYPDPLEPRP
- DGI-2 (OD) (DGI-2 polypeptide): 5.7 OD
- DGI-2/LDH (DGI-2 polypeptide): 6 ratio
- ETAG (OD) [1]: 13.6 OD
- LDH (OD) [2]: 0.9 OD

Binder: RDTTSQWSWISRGWEFPGWRAAAGAPVPYPDPLEPRP [DGI-2-20R-3-C2]
- DGI-2 (OD) (DGI-2 polypeptide): 6.2 OD
- DGI-2/LDH (DGI-2 polypeptide): 5.8 ratio
- ETAG (OD) [1]: 11.9 OD
- LDH (OD) [2]: 1.1 OD

Binder: RRILPWSFPGCGRMCAAAGAPVPYPDPLEPRP [DGJ-2-20R-3-A10]
- DGI-2 (OD) (DGI-2 polypeptide): 6.2 OD
- DGI-2/LDH (DGI-2 polypeptide): 5.9 ratio
- ETAG (OD) [1]: 16.4 OD
- LDH (OD) [2]: 1.1 OD

Binder: RSIRLQLIDEACQFFDGLCTAAAGAPVPYPDPLEPRP [DGI-2-20R-3-A8]
- DGI-2 (OD) (DGI-2 polypeptide): 6.9 OD
- DGI-2/LDH (DGI-2 polypeptide): 6.4 ratio
- ETAG (OD) [1]: 15.3 OD
- LDH (OD) [2]: 1.1 OD

Binder: GGGRESWGGGWFMGWGSGAGAAAGAPVPYPDPLEPRP [DGI-2-20R-3-A6]
- DGI-2 (OD) (DGI-2 polypeptide): 5.8 OD
- DGI-2/LDH (DGI-2 polypeptide): 5.9 ratio
- ETAG (OD) [1]: 17.7 OD
- LDH (OD) [2]: 1 OD

Binder: WWERFVWGRPVDDGVVVMATAAAGAPVPYPDPLEPRP [DGI-2-20R-3-B1]
- DGI-2 (OD) (DGI-2 polypeptide): 6.3 OD
- DGI-2/LDH (DGI-2 polypeptide): 6.2 ratio
- ETAG (OD) [1]: 14.5 OD
- LDH (OD) [2]: 1 OD

Binder: GWGCSVPGILCVGGHRQGGGAAAGAPVPYPDPLEPRP [DGI-2-20R-3-B11]
- DGI-2 (OD) (DGI-2 polypeptide): 5.9 OD
- DGI-2/LDH (DGI-2 polypeptide): 5.7 ratio
- ETAG (OD) [1]: 16.9 OD
- LDH (OD) [2]: 1 OD

Binder: MFQDVACDLWHSVRCLRRDVAAAGAPVPYPDPLEPRP [DGI-2-20R-3-B3]
- DGI-2 (OD) (DGI-2 polypeptide): 4.9 OD
- DGI-2/LDH (DGI-2 polypeptide): 4.8 ratio
- ETAG (OD) [1]: 16.1 OD
- LDH (OD) [2]: 1 OD

Binder: RDTMCGSVSWGIPGCEYSGMAAAGAPVPYPDPLEPRP [DGI-2-20R-4-G122]
- DGI-2 (OD) (DGI-2 polypeptide): 7.6 OD
- DGI-2/LDH (DGI-2 polypeptide): 7.1 ratio
- ETAG (OD) [1]: 13.9 OD
- LDH (OD) [2]: 1.1 OD

Binder: WGCVFRQWASGSGAGCARRHAAAGAPVPYPDPLEPRP [DGI-2-20R-3-D9]
- DGI-2 (OD) (DGI-2 polypeptide): 6.7 OD
- DGI-2/LDH (DGI-2 polypeptide): 6.4 ratio
- ETAG (OD) [1]: 19.7 OD
- LDH (OD) [2]: 1 OD

Binder: VHSQGRMWAIPGLRGGTGASAAAGAPVPYPDPLEPRP [DGI-2-20R-3-D7]
- DGI-2 (OD) (DGI-2 polypeptide): 5.2 OD
- DGI-2/LDH (DGI-2 polypeptide): 5.3 ratio
- ETAG (OD) [1]: 18.7 OD
- LDH (OD) [2]: 1 OD

Binder: EGNWFCAVFRGFCVGDRGPEAAAGAPVPYPDPLEPRP [DGI-2-20R-3-A1]
- DGI-2 (OD) (DGI-2 polypeptide): 7.1 OD
- DGI-2/LDH (DGI-2 polypeptide): 6.3 ratio
- ETAG (OD) [1]: 11.1 OD
- LDH (OD) [2]: 1.1 OD

B5: DGI-2-40F-3-D1044 (peptide)
peptide: DRVARLATPTAGTMAAGSLGYERTVGCDSQDWFRCVVEGLAAAGAPVPYPDPLEPRP
- DGI-2 (OD) (DGI-2 polypeptide): 7.9 OD
- DGI-2/LDH (DGI-2 polypeptide): 6.2 ratio
- ETAG (OD) [1]: 17.7 OD
- LDH (OD) [2]: 1.3 OD

Binder: DQRVVGSGWFERLRNWYDRAAAAGAPVPYPDPLEPRP [DGI-2-20R-4-G99]
- DGI-2 (OD) (DGI-2 polypeptide): 7.5 OD
- DGI-2/LDH (DGI-2 polypeptide): 7.2 ratio
- ETAG (OD) [1]: 14.1 OD
- LDH (OD) [2]: 1 OD

Binder: RERWGTAWNLWTEGVVDVRPAAAGAPVPYPDPLEPRP [DGI-2-20F-3-B5]
- DGI-2 (OD) (DGI-2 polypeptide): 6.1 OD
- DGI-2/LDH (DGI-2 polypeptide): 6.6 ratio
- ETAG (OD) [1]: 16.4 OD
- LDH (OD) [2]: 0.9 OD

Binder: QMSRVAFSPGESWRRWVEGVAAAGAPVPYPDPLEPRP [DGI-2-20R-3-A2]
- DGI-2 (OD) (DGI-2 polypeptide): 7.5 OD
- DGI-2/LDH (DGI-2 polypeptide): 7.5 ratio
- ETAG (OD) [1]: 14.2 OD
- LDH (OD) [2]: 1 OD

Binder: QLDCLVWGLPGLRCDRPLEQAAAGAPVPYPDPLEPRP [DGI-2-20R-3-B10]
- DGI-2 (OD) (DGI-2 polypeptide): 7.8 OD
- DGI-2/LDH (DGI-2 polypeptide): 7.6 ratio
- ETAG (OD) [1]: 17 OD
- LDH (OD) [2]: 1 OD
